# Experimental data as given in patent US20260014211.
# Legend:
# [1] = test system: His-BcpT (recombinant N-terminal His-tagged BcpT without signal sequence)
substance,measurement,setting,value
Factor Xa,"cleavage of His-tagged BcpT (Coomassie gel, N-terminal sequencing of fragments)",[1],FXa cleaves after R65 and R199 of two Leu-Thr-Arg (LTR) motifs
same,cleavage by FXa (Coomassie gel),His-BcpT R199N,are not cleaved by FXa (other than releasing the His-tag)
same,cleavage by FXa (Coomassie gel),His-BcpT R65N:R199N,are not cleaved by FXa (other than releasing the His-tag)
same,cleavage by FXa (Coomassie gel),His-BcpT R65N,is cleaved only at the R199 site
"doripain A activated with trypsin, DpnA(a)","cleavage and activation of BcpT (Coomassie gel, agar overlay)",[1],The active forms of both proteases cleave and activate BcpT
same,cleavage of BcpT site mutant (Western immunoblot),His-BcpT R199N,"both proteases can cleave BcpT^R199N at the R65 site, which FXa does not"
"doripain A, full-length recombinant proenzyme (not trypsin treated)","activation of BcpT (Coomassie gel, agar overlay)",[1],DpnA remains full-length and cannot activate BcpT
doripain B (DpnB),"cleavage and activation of BcpT (Coomassie gel, agar overlay)",[1],The active forms of both proteases cleave and activate BcpT
same,cleavage of BcpT site mutant (Western immunoblot),His-BcpT R199N,"both proteases can cleave BcpT^R199N at the R65 site, which FXa does not"
